Experiments:
Conditions in all cases: Enterobacter cloacae
[1] = substrate: CC(C)(O/N=C(\C(=O)N[C@@H]1C(=O)N2C(C(=O)[O-])=C(C[n+]3ccccc3)CS[C@H]12)c1csc(N)n1)C(=O)O
Description: (§1) Activity of Enterobacter cloacae 4092 AmpC (E2) assessed as drug hydrolysis by spectrophotometry

[2] = substrate: CC1(C)S[C@@H]2[C@H](NC(=O)Cc3ccccc3)C(=O)N2[C@H]1C(=O)O
Description: as §1

[3] = substrate: CO/N=C(\C(=O)N[C@@H]1C(=O)N2C(C(=O)[O-])=C(C[N+]3(C)CCCC3)CS[C@H]12)c1csc(N)n1
Description: as §1

[4] = substrate: Nc1nc(/C(=N/O)C(=O)N[C@@H]2C(=O)N3C(C(=O)O)=C(/C=C4\CCN([C@@H]5CCNC5)C4=O)CS[C@H]23)ns1
Description: as §1

[5] = substrate: O=C(Cc1cccs1)N[C@@H]1C(=O)N2C(C(=O)O)=C(/C=C/c3ccc([N+](=O)[O-])cc3[N+](=O)[O-])CS[C@H]12
Description: as §1

[6] = substrate: O=C(Cc1cccs1)N[C@@H]1C(=O)N2C(C(=O)[O-])=C(C[n+]3ccccc3)CS[C@H]12
Description: as §1

[7] = substrate: CC(C)(O/N=C(\C(=O)N[C@@H]1C(=O)N2C(C(=O)[O-])=C(C[n+]3ccccc3)CS[C@H]12)c1csc(N)n1)C(=O)O; remark: listed apart in the source
Description: (§2) Activity of Enterobacter cloacae 4080 AmpC (P99) assessed as drug hydrolysis by spectrophotometry

[8] = substrate: CC1(C)S[C@@H]2[C@H](NC(=O)Cc3ccccc3)C(=O)N2[C@H]1C(=O)O; remark: listed apart in the source
Description: as §2

[9] = substrate: CO/N=C(\C(=O)N[C@@H]1C(=O)N2C(C(=O)[O-])=C(C[N+]3(C)CCCC3)CS[C@H]12)c1csc(N)n1; remark: listed apart in the source
Description: as §2

[10] = substrate: Nc1nc(/C(=N/O)C(=O)N[C@@H]2C(=O)N3C(C(=O)O)=C(/C=C4\CCN([C@@H]5CCNC5)C4=O)CS[C@H]23)ns1; remark: listed apart in the source
Description: as §2

[11] = substrate: CC(C)(O/N=C(\C(=O)N[C@@H]1C(=O)N2C(C(=O)[O-])=C(C[n+]3ccccc3)CS[C@H]12)c1csc(N)n1)C(=O)O; remark: listed apart in the source
Description: (§3) Ratio of Kcat to Km of Enterobacter cloacae 4080 AmpC (P99) assessed as drug hydrolysis by spectrophotometry

[12] = substrate: CC1(C)S[C@@H]2[C@H](NC(=O)Cc3ccccc3)C(=O)N2[C@H]1C(=O)O; remark: listed apart in the source
Description: as §3

[13] = substrate: CO/N=C(\C(=O)N[C@@H]1C(=O)N2C(C(=O)[O-])=C(C[N+]3(C)CCCC3)CS[C@H]12)c1csc(N)n1; remark: listed apart in the source
Description: as §3

[14] = substrate: Nc1nc(/C(=N/O)C(=O)N[C@@H]2C(=O)N3C(C(=O)O)=C(/C=C4\CCN([C@@H]5CCNC5)C4=O)CS[C@H]23)ns1; remark: listed apart in the source
Description: as §3

[15] = substrate: O=C(Cc1cccs1)N[C@@H]1C(=O)N2C(C(=O)[O-])=C(C[n+]3ccccc3)CS[C@H]12; remark: listed apart in the source
Description: as §3

[16] = substrate: CC(C)(O/N=C(\C(=O)N[C@@H]1C(=O)N2C(C(=O)[O-])=C(C[n+]3ccccc3)CS[C@H]12)c1csc(N)n1)C(=O)O; remark: listed apart in the source
Description: (§4) Activity of Enterobacter cloacae 908R AmpC assessed as drug hydrolysis by spectrophotometry

[17] = substrate: CC1(C)S[C@@H]2[C@H](NC(=O)Cc3ccccc3)C(=O)N2[C@H]1C(=O)O; remark: listed apart in the source
Description: as §4

[18] = substrate: CO/N=C(\C(=O)N[C@@H]1C(=O)N2C(C(=O)[O-])=C(C[N+]3(C)CCCC3)CS[C@H]12)c1csc(N)n1; remark: listed apart in the source
Description: as §4

[19] = substrate: Nc1nc(/C(=N/O)C(=O)N[C@@H]2C(=O)N3C(C(=O)O)=C(/C=C4\CCN([C@@H]5CCNC5)C4=O)CS[C@H]23)ns1; remark: listed apart in the source
Description: as §4

[20] = substrate: O=C(Cc1cccs1)N[C@@H]1C(=O)N2C(C(=O)[O-])=C(C[n+]3ccccc3)CS[C@H]12; remark: listed apart in the source
Description: as §4

[21] = substrate: CC(C)(O/N=C(\C(=O)N[C@@H]1C(=O)N2C(C(=O)[O-])=C(C[n+]3ccccc3)CS[C@H]12)c1csc(N)n1)C(=O)O; remark: listed apart in the source
Description: (§5) Ratio of Kcat to Km of Enterobacter cloacae 908R AmpC assessed as drug hydrolysis by spectrophotometry

[22] = substrate: CC1(C)S[C@@H]2[C@H](NC(=O)Cc3ccccc3)C(=O)N2[C@H]1C(=O)O; remark: listed apart in the source
Description: as §5

[23] = substrate: CO/N=C(\C(=O)N[C@@H]1C(=O)N2C(C(=O)[O-])=C(C[N+]3(C)CCCC3)CS[C@H]12)c1csc(N)n1; remark: listed apart in the source
Description: as §5

[24] = substrate: Nc1nc(/C(=N/O)C(=O)N[C@@H]2C(=O)N3C(C(=O)O)=C(/C=C4\CCN([C@@H]5CCNC5)C4=O)CS[C@H]23)ns1; remark: listed apart in the source
Description: as §5

[25] = substrate: O=C(Cc1cccs1)N[C@@H]1C(=O)N2C(C(=O)[O-])=C(C[n+]3ccccc3)CS[C@H]12; remark: listed apart in the source
Description: as §5

B1: Beta-lactamase (Enterobacter cloacae), P05364 (protein)
chain: MMRKSLCCALLLGISCSALATPVSEKQLAEVVANTITPLMKAQSVPGMAVAVIYQGKPHYYTFGKADIAANKPVTPQTLFELGSISKTFTGVLGGDAIARGEISLDDAVTRYWPQLTGKQWQGIRMLDLATYTAGGLPLQVPDEVTDNASLLRFYQNWQPQWKPGTTRLYANASIGLFGALAVKPSGMPYEQAMTTRVLKPLKLDHTWINVPKAEEAHYAWGYRDGKAVRVSPGMLDAQAYGVKTNVQDMANWVMANMAPENVADASLKQGIALAQSRYWRIGSMYQGLGWEMLNWPVEANTVVEGSDSKVALAPLPVAEVNPPAPPVKASWVHKTGSTGGFGSYVAFIPEKQIGIVMLANTSYPNPARVEAAYHILEALQ
What does the source list for B1?
Km [1]: 110 µM; kcat [1]: 0.16 s⁻¹; Km [2]: 8.3 µM; kcat [2]: 65 s⁻¹; Km [3]: > 630 µM; kcat [3]: < 0.021 s⁻¹; Km [4]: 26 µM; kcat [4]: < 0.057 s⁻¹; Km [5]: 56 µM; kcat [5]: 570 s⁻¹; Km [6]: 480 µM; kcat [6]: 690 s⁻¹; Km [7]: 2.9 µM; kcat [7]: 0.021 s⁻¹; Km [8]: 4.7 µM; kcat [8]: 32 s⁻¹; Km [9]: 67 µM; kcat [9]: 0.27 s⁻¹; Km [10]: 9.4 µM; kcat [10]: 0.21 s⁻¹; kcat/Km [11]: 7200 M⁻¹ s⁻¹; kcat/Km [12]: 6.8e+06 M⁻¹ s⁻¹; kcat/Km [13]: 4000 M⁻¹ s⁻¹; kcat/Km [14]: 22000 M⁻¹ s⁻¹; kcat/Km [15]: 7.6e+06 M⁻¹ s⁻¹; Km [16]: 3.5 µM; kcat [16]: 2.3 s⁻¹; Km [17]: 6 µM; kcat [17]: 53 s⁻¹; Km [18]: 16 µM; kcat [18]: 0.82 s⁻¹; Km [19]: 12 µM; kcat [19]: 0.45 s⁻¹; Km [20]: 360 µM; kcat [20]: 3200 s⁻¹; kcat/Km [21]: 660000 M⁻¹ s⁻¹; kcat/Km [22]: 8.8e+06 M⁻¹ s⁻¹; kcat/Km [23]: 75000 M⁻¹ s⁻¹; kcat/Km [24]: 38000 M⁻¹ s⁻¹; kcat/Km [25]: 8.9e+06 M⁻¹ s⁻¹

Reference: ChEMBL document CHEMBL1143427, “Interactions of ceftobiprole with beta-lactamases from molecular classes A to D” (Antimicrob Agents Chemother, 2007)
